The values that follow come from paper PMC10716449.

The series deals with T1, ybbR-CENP-B-His6 (full length, JF549-labelled for smTIRF) (UniProt P07199).
T1 sequence: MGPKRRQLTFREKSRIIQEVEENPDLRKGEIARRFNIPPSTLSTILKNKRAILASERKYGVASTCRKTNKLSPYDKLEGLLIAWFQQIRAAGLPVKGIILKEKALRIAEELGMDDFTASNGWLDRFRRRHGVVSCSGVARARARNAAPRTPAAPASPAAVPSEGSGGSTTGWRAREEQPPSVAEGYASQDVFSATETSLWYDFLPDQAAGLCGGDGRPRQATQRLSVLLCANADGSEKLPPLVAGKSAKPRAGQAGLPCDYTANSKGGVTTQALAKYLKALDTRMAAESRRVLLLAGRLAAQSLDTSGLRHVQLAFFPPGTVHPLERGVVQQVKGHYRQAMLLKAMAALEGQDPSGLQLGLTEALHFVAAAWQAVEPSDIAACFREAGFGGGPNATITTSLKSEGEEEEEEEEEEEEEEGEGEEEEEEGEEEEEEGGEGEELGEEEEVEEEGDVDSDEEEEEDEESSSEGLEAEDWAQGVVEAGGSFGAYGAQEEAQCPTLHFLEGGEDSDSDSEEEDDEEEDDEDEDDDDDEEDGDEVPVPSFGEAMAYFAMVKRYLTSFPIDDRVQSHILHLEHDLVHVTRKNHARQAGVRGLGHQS
Kind of series: single-molecule colocalization (smTIRF). Particulars: smTIRF: about 5 nM CENP-B, 150 mM salt, EMSA: 10 mM Tris pH 7.5, 130 mM KCl, 3.2% glucose, 30 min at room temperature.

Regarding “CENP-A 12x601 chromatin fiber DA3BB (1 B-Box at N6)”, the binding signal (s (tau off,2)) (150 mM KCl, tau_off,1 4.9 s (67%), A2 33%, amino-C6-dT, 5% PAGE in 0.25x …) was 51.4. For “GATCGGTCTCATAGCCTTCGTTGGAAACGGGAGAATCCCGGTGCCGAGGCCGCTCAATTGGTCGTAGACAGCTCTAGCACCGCTTAAACGCACGTACGCGCTGTCCCCCGCGTTTTAACCGCCAAGGGGATTACTCCCTAGTCTCCAGGCACGTGTCAGATATATACATCCTGTCACACTGTGGATC (double strand) [H3 1x601 BB mononucleosome]”, under “tau_off,1 6.87 s (66%), A2 34%, amino-C6-dT on reverse strand, 5% PAGE in 0.25x TBE”, the binding signal (s (tau off,2)) worked out at 48.3. With “GATCGGTCTCATAGCCTGGAGAATCCCGGTGCCGAGGCCGCTCAATTGGTCGTAGACAGCTCTAGCACCGCTTAAACGCACGTACGCGCTGTCCCCCGCGTTTTAACCGCCAAGGGGATTACTCCCTAGTCTCCAGGCACGTGTCAGATATATACATCCTGTCACACTGTGGATC (double strand) [H3 1x601 mononucleosome (no B-Box)]”, the binding signal (s (tau off,2)) (tau_off,1 3.4 s (51%), A2 49%, amino-C6-dT on reverse strand, 5% PAGE in 0.25x TBE) is 15.2. Consider “GATCGGTCTCATAGCCTTCGTTGGAAACGGGAGAATCCCGGTGCCGAGGCCGCTCAATTGGTCGTAGACAGCTCTAGCACCGCTTAAACGCACGTACGCGCTGTCCCCCGCGTTTTAACCGCCAAGGGGATTACTCCCTAGTCTCCAGGCACGTGTCAGATATATACATCCTGTCACACTGTGGATC (double strand) [CENP-A 1x601 BB mononucleosome]”, for which the binding signal (s (tau off,2)) (tau_off,1 6.8 s (51%), A2 49%, amino-C6-dT on reverse strand (smTIRF), 5% PAGE in 0.25x TBE) turned out to be 50.2.

With “H3 12x601 chromatin fiber DA3BB (1 B-Box at N6)”, the binding signal (s (tau off,2)) (150 mM KCl, tau_off,1 3.6 s (47%), A2 52%, amino-C6-dT, 5% PAGE in 0.25x …) came to 17.6.
